Earlier results in PMC3758474.

What was measured:
Grb7 SH2 (Homo sapiens) = Grb7 SH2 (Homo sapiens) (UniProt Q14451)
[1] = target: erbB2 pY1139 peptide pY1139 peptide (Homo sapiens) (UniProt P04626); test: ITC

Kd (Grb7 SH2 (Homo sapiens)): 11 µM
Kd [1]: 2.28 µM
Substance: Grb7 SH2 (from UniProt Q14451)
